Laboratory results published in patent publication CN114106161A (ANYUAN MEDICINE SCIENCE AND TECH SHANGHAI LIMITED COMPANY, dated 2022).

Assays:
刺突S-鼠Fc融合蛋白 (S-mFc) = 刺突S-鼠Fc融合蛋白 (S-mFc) (SARS-CoV-2; mouse, UniProt P0DTC2 14-1213); assay: flow cytometry, blocking of S-mFc binding to 293T-ACE2 cells
[1] = biological target: T1, SARS-CoV-2 S1蛋白 (ACRO Biosystems) (SARS-CoV-2, UniProt P0DTC2 16-685); assay: competition ELISA, S1 coated, competitor HRP-labelled hACE2-Fc
T1 construct: domain: S1; also called SARS-CoV-2S1抗原; 生物素化SARS-CoV-2S1

[2] = biological target: T1, SARS-CoV-2 S1蛋白 (ACRO Biosystems); assay: BLI, biotinylated SARS-CoV-2 S1 on SA sensor, antibody as analyte, 1:1 fit

B1: 人源化抗体hS1B-73-3 (antibody, V domains shown)
VH: EVQLVQSGAEVKKPGSSVKVSCKASGYAFTNFLIEWVREAPGQGLEWIGMINPGSGDTNYNEKFKGKATLTADKSTSTVYMELSSLRSEDTAVYFCARQLGLPGFVYWGRGTTVTVSS
VL: DIQMTQSPSSLSASVGDRVTITCKASQDINSYLTWLQQKPGKSPKTLIYRANRLVEGVPSRFSGSGSGQDFTLKISSLQPEDIATYYCLQHDEFPLTFGQGTKLEIKR
notes: also called 抗SARS-CoV-2S1 RBD人源化抗体hS1B-73-3
刺突S-鼠Fc融合蛋白 (S-mFc)
  IC50: 0.00433 µg/mL
[1]
  EC50: 0.0254 µg/mL
[2]
  Kd: 0.0207 nM
  koff: 2.22e-05 s⁻¹
  kon: 1.07e+06 M⁻¹ s⁻¹
